As a reminder, the Kd is a measure of binding affinity in units of concentration. Lower therefore signals tighter binding.

The target in one assay is extracellular region of human V158 FcγRIIIa, C-terminal 6xHis-tag and GST-tag (human) (UniProt P08637). Nature of the assay: SPR, receptor immobilized, antibody flowed over. Background: Surface plasmon resonance follows binding to a sensor surface in real time, without labels.
On to alemtuzumab, wild type (antibody), for which the Kd was determined as 0.068 µM.

A further assay addresses extracellular region of human F158 FcγRIIIa, C-terminal 6xHis-tag and GST-tag (human) (UniProt P08637). The experiment in a line: SPR, receptor immobilized, antibody flowed over.
For the substance alemtuzumab, wild type (antibody), the dissociation constant (Kd) stood at 0.73 µM.

The next assay has as its target extracellular region of human V158 FcγRIIIa, C-terminal 6xHis-tag and GST-tag (human) (UniProt P08637). The experiment in a line: SPR.
On to alemtuzumab S304T (antibody), for which the Fold WT was 12.8 fold.
Same read-out and setting: the same measure for alemtuzumab E258H (antibody): 5.5 fold; for alemtuzumab V284E (antibody): 1.51 fold; for alemtuzumab S267E (antibody): 2.62 fold.
Regarding alemtuzumab E272H (antibody), the Fold WT came to 384 fold.
In turn, alemtuzumab H268D (antibody) yielded a Fold WT of 5.66 fold.
Consider alemtuzumab E283L (antibody), for which the Fold WT worked out at 2.56 fold.
Still for that read-out and setting: the same measure for alemtuzumab K246H (antibody): 22.4 fold.
On the same count and under the same terms, for alemtuzumab R255Y (antibody) the value was 1.41 fold; for alemtuzumab E283H (antibody), 2.31 fold; for alemtuzumab E272R (antibody), 1.38 fold.
alemtuzumab T260H (antibody) gave a Fold WT of 1.86 fold.
alemtuzumab E258Y (antibody) yielded a Fold WT of 1.77 fold.
As for alemtuzumab K246Y (antibody), the Fold WT worked out at 7.07 fold.

The target of a further assay is FcγRIIIa on human PBMCs expressing heterozygous V158/F158 FcγRIIIa (human) (UniProt P08637). The experiment in a line: cell-based or functional assay.
Substance alemtuzumab S239D/I332E (antibody) displayed an ADCC EC50, DoHH-2 targets, PBMCs of 3 ng/mL and an ADCC log(EC50), DoHH-2 targets, PBMCs of 0.49.
For the substance alemtuzumab V264I/I332E (antibody), the ADCC EC50, DoHH-2 targets, PBMCs came to 4 ng/mL and the ADCC log(EC50), DoHH-2 targets, PBMCs amounted to 0.6.

For the origin of these results see patent publication US20140073768A1.
